The experiment addresses wild-type human sodium taurocholate cotransporting polypeptide (human NTCP) (human) (UniProt Q14973). Kind of experiment: cell-based or functional assay.

Chain of wild-type human sodium taurocholate cotransporting polypeptide (human NTCP) (human) (Q14973 whole entry): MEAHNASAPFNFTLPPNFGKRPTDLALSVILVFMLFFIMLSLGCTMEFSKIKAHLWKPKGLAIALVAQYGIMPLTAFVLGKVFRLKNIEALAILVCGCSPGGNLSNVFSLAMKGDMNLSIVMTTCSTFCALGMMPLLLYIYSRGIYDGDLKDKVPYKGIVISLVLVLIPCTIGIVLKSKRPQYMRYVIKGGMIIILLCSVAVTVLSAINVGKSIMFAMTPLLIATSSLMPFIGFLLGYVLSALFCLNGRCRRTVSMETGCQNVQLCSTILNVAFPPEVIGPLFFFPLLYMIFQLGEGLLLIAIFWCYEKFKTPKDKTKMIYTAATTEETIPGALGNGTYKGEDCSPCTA

As to preS1 peptide, the [3H]-taurocholic acid uptake by HepG2-human NTCP cells, at 1000 nM (fraction of uptake remaining) is 0.05; the inhibition of [3H]-taurocholic acid uptake by human NTCP-expressing HepG2, at 100 nM was 60%; the inhibition of [3H]-taurocholic acid uptake by human NTCP-expressing HepG2, at 1000 nM is 96%; the suppression of bile acid uptake into a hepatocyte cell line, at 1000 nM (FIG. 3 legend) is less than 90%.

Source of the values: US20240092924A1.
